Measurements as given in the supplement of paper PMC11316812.
± gives the standard deviation of the averaged measurements.

Assays:
[1] = test system: hTERT-HMEC; experiment: percentage of EdU-negative (G0-arrested) nuclei per well, 72 h; higher = more G0 arrest; details: reference: sequence is the full UniProt precursor, the tested protein was the secreted form or ectodomain
[2] = test system: MCF7; experiment: as above; details: reference: sequence is the full UniProt precursor, the tested protein was the secreted form or ectodomain
[3] = protein concentration 0.0357143 µM
[4] = protein concentration 0.357143 µM
[5] = protein concentration 0.03034 µM
[6] = protein concentration 0.3034 µM
[7] = protein concentration 0.0257143 µM
[8] = protein concentration 0.257143 µM
[9] = protein concentration 0.0225 µM
[10] = protein concentration 0.009215 µM
[11] = protein concentration 0.09215 µM
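Also: secreted proteins added to cultured cells, EdU pulse at the end, nuclei found by Hoechst imaging, EdU status from nuclear versus surrounding ring intensity ratio, PBS as neutral control.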

Row | Sequence | percentage of EdU-negative [1, 9] | percentage of EdU-negative ([1]; protein concentration 0.225 µM) | percentage of EdU-negative [2, 9] | percentage of EdU-negative ([2]; protein concentration 0.225 µM) | other results
1 | MGKSASKQFHNEVLKAHNEYRQKHGVPPLKLCKNLNREAQQYSEALASTRILKHSPESSRGQCGENLAWASYDQTGKEVADRWYSEIKNYNFQQPGFTSGTGHFTAMVWKNTKKMGVGKASASDGSSFVVARYFPAGNVVNEGFFEENVLPPKK [Q9H4G4] |  |  |  |  | percentage of EdU-negative [1, 3]: 4.55 ± 0.31%; percentage of EdU-negative [1, 4]: 7.6 ± 0.95%; percentage of EdU-negative [2, 3]: 25.6 ± 0.71%; percentage of EdU-negative [2, 4]: 24.5 ± 0.79%
2 | MQGAQEASASEMLPLLLPLLWAGALAQERRFQLEGPESLTVQEGLCVLVPCRLPTTLPASYYGYGYWFLEGADVPVATNDPDEEVQEETRGRFHLLWDPRRKNCSLSIRDARRRDNAAYFFRLKSKWMKYGYTSSKLSVRVMALTHRPNISIPGTLESGHPSNLTCSVPWVCEQGTPPIFSWMSAAPTSLGPRTTQSSVLTITPRPQDHSTNLTCQVTFPGAGVTMERTIQLNVSYAPQKVAISIFQGNSAAFKILQNTSSLPVLEGQALRLLCDADGNPPAHLSWFQGFPALNATPISNTGVLELPQVGSAEEGDFTCRAQHPLGSLQISLSLFVHWKPEGRAGGVLGAVWGASITTLVFLCVCFIFRVKTRRKKAAQPVQNTDDVNPVMVSGSRGHQHQFQTGIVSDHPAEAGPISEDEQELHYAVLHFHKVQPQEPKVTDTEYSEIKIHK |  |  |  |  | percentage of EdU-negative [1, 5]: 5.1074 ± 0.0018%; percentage of EdU-negative [1, 6]: 5.306 ± 0.046%; percentage of EdU-negative [2, 5]: 22.4 ± 2.3%; percentage of EdU-negative [2, 6]: 27.1 ± 0.29%
3 | MYLSICCCFLLWAPALTLKNLNYSVPEEQGAGTVIGNIGRDARLQPGLPPAERGGGGRSKSGSYRVLENSAPHLLDVDADSGLLYTKQRIDRESLCRHNAKCQLSLEVFANDKEICMIKVEIQDINDNAPSFSSDQIEMDISENAAPGTRFPLTSAHDPDAGENGLRTYLLTRDDHGLFGLDVKSRGDGTKFPELVIQKALDREQQNHHTLVLTALDGGEPPRSATVQINVKVIDSNDNSPVFEAPSYLVELPENAPLGTVVIDLNATDADEGPNGEVLYSFSSYVPDRVRELFSIDPKTGLIRVKGNLDYEENGMLEIDVQARDLGPNPIPAHCKVTVKLIDRNDNAPSIGFVSVRQGALSEAAPPGTVIALVRVTDRDSGKNGQLQCRVLGGGGTGGGGGLGGPGGSVPFKLEENYDNFYTVVTDRPLDRETQDEYNVTIVARDGGSPPLNSTKSFAIKILDENDNPPRFTKGLYVLQVHENNIPGEYLGSVLAQDPDLGQNGTVSYSILPSHIGDVSIYTYVSVNPTNGAIYALRSFNFEQTKAFEFKVLAKDSGAPAHLESNATVRVTVLDVNDNAPVIVLPTLQNDTAELQVPRNAGLGYLVSTVRALDSDFGESGRLTYEIVDGNDDHLFEIDPSSGEIRTLHPFWEDVTPVVELVVKVTDHGKPTLSAVAKLIIRSVSGSLPEGVPRVNGEQHHWDMSLPLIVTLSTISIILLAAMITIAVKCKRENKEIRTYNCRIAEYSHPQLGGGKGKKKKINKNDIMLVQSEVEERNAMNVMNVVSSPSLATSPMYFDYQTRLPLSSPRSEVMYLKPASNNLTVPQGHAGCHTSFTGQGTNASETPATRMSIIQTDNFPAEPNYMGSRQQFVQSSSTFKDPERASLRDSGHGDSDQADSDQDTNKGSCCDMSVREALKMKTTSTKSQPLEQEPEECVNCTDECRVLGHSDRCWMPQFPAANQAENADYRTNLFVPTVEANVETETYETVNPTGKKTFCTFGKDKREHTILIANVKPYLKAKRALSPLLQEVPSASSSPTKACIEPCTSTKGSLDGCEAKPGALAEASSQYLPTDSQYLSPSKQPRDPPFMASDQMARVFADVHSRASRDSSEMGAVLEQLDHPNRDLGRESVDAEEVVREIDKLLQDCRGNDPVAVRK |  |  |  |  | percentage of EdU-negative [1, 7]: 4.62 ± 0.4%; percentage of EdU-negative [1, 8]: 7.27 ± 0.33%; percentage of EdU-negative [2, 7]: 23.2 ± 3%; percentage of EdU-negative [2, 8]: 26.6 ± 0.28%
4 | MLCLGWIFLWLVAGERIKGFNISGCSTKKLLWTYSTRSEEEFVLFCDLPEPQKSHFCHRNRLSPKQVPEHLPFMGSNDLSDVQWYQQPSNGDPLEDIRKSYPHIIQDKCTLHFLTPGVNNSGSYICRPKMIKSPYDVACCVKMILEVKPQTNASCEYSASHKQDLLLGSTGSISCPSLSCQSDAQSPAVTWYKNGKLLSVERSNRIVVDEVYDYHQGTYVCDYTQSDTVSSWTVRAVVQVRTIVGDTKLKPDILDPVEDTLEVELGKPLTISCKARFGFERVFNPVIKWYIKDSDLEWEVSVPEAKSIKSTLKDEIIERNIILEKVTQRDLRRKFVCFVQNSIGNTTQSVQLKEKRGVVLLYILLGTIGTLVAVLAASALLYRHWIEIVLLYRTYQSKDQTLGDKKDFDAFVSYAKWSSFPSEATSSLSEEHLALSLFPDVLENKYGYSLCLLERDVAPGGVYAEDIVSIIKRSRRGIFILSPNYVNGPSIFELQAAVNLALDDQTLKLILIKFCYFQEPESLPHLVKKALRVLPTVTWRGLKSVPPNSRFWAKMRYHMPVKNSQGFTWNQLRITSRIFQWKGLSRTETTGRSSQPKEW | 5.27 ± 0.17% | 4.77 ± 0.22% | 26.2 ± 0.97% | 24.78 ± 0.22% | 
5 | MPRYVPLLLLLLLLRCSERGGGVNFGEKDAKVPGTWRDGVRVPGEGASWDSDRASPERRYGIVGLSQSISTKHPETSPKDSRIRENDVTADGRTTEDHITADPGTTEDSVTADPGTTEDNVTVDPGTTEGSVTADPATTKDYVSADPGTTKDSVTADPGTTENFVTADPGTTKDSITADPRTTEDSVTADPGTTKHSITVDPGTTEDSVTADPGTTKHSITADPGTTEDSVTADPGTTEDETTKHGDTHLL [E2RYF7] | 5.3 ± 1.4% | 5.54 ± 0.41% | 23.6 ± 2.3% | 24.8 ± 0.67% | 
6 | MFWKLSLSLFLVAVLVKVAEARKNRPAGAIPSPYKDGSSNNSERWQHQIKEVLASSQEALVVTERKYLKSDWCKTQPLRQTVSEEGCRSRTILNRFCYGQCNSFYIPRHVKKEEESFQSCAFCKPQRVTSVLVELECPGLDPPFRLKKIQKVKQCRCMSVNLSDSDKQ [Q9H772] |  |  |  |  | percentage of EdU-negative [1, 10]: 5.28 ± 0.078%; percentage of EdU-negative [1, 11]: 5.14 ± 0.38%; percentage of EdU-negative [2, 10]: 22.3 ± 1.6%; percentage of EdU-negative [2, 11]: 27.2 ± 0.92%
7 | MPRPAPARRLPGLLLLLWPLLLLPSAAPDPVARPGFRRLETRGPGGSPGRRPSPAAPDGAPASGTSEPGRARGAGVCKSRPLDLVFIIDSSRSVRPLEFTKVKTFVSRIIDTLDIGPADTRVAVVNYASTVKIEFQLQAYTDKQSLKQAVGRITPLSTGTMSGLAIQTAMDEAFTVEAGAREPSSNIPKVAIIVTDGRPQDQVNEVAARAQASGIELYAVGVDRADMASLKMMASEPLEEHVFYVETYGVIEKLSSRFQETFCALDPCVLGTHQCQHVCISDGEGKHHCECSQGYTLNADKKTCSALDRCALNTHGCEHICVNDRSGSYHCECYEGYTLNEDRKTCSAQDKCALGTHGCQHICVNDRTGSHHCECYEGYTLNADKKTCSVRDKCALGSHGCQHICVSDGAASYHCDCYPGYTLNEDKKTCSATEEARRLVSTEDACGCEATLAFQDKVSSYLQRLNTKLDDILEKLKINEYGQIHR | 4.9 ± 0.095% | 5.61 ± 0.67% | 22.2 ± 2.4% | 26.2 ± 2% | 
8 | MKPNIIFVLSLLLILEKQAAVMGQKGGSKGRLPSEFSQFPHGQKGQHYSGQKGKQQTESKGSFSIQYTYHVDANDHDQSRKSQQYDLNALHKTTKSQRHLGGSQQLLHNKQEGRDHDKSKGHFHRVVIHHKGGKAHRGTQNPSQDQGNSPSGKGISSQYSNTEERLWVHGLSKEQTSVSGAQKGRKQGGSQSSYVLQTEELVANKQQRETKNSHQNKGHYQNVVEVREEHSSKVQTSLCPAHQDKLQHGSKDIFSTQDELLVYNKNQHQTKNLNQDQQHGRKANKISYQSSSTEERRLHYGENGVQKDVSQSSIYSQTEEKAQGKSQKQITIPSQEQEHSQKANKISYQSSSTEERRLHYGENGVQKDVSQRSIYSQTEKLVAGKSQIQAPNPKQEPWHGENAKGESGQSTNREQDLLSHEQKGRHQHGSHGGLDIVIIEQEDDSDRHLAQHLNNDRNPLFT |  |  |  |  | percentage of EdU-negative ([1]; protein concentration 0.005 µM): 6.42 ± 0.18%; percentage of EdU-negative ([1]; protein concentration 0.05 µM): 6.06 ± 1.2%; percentage of EdU-negative ([2]; protein concentration 0.005 µM): 28.4 ± 1.1%; percentage of EdU-negative ([2]; protein concentration 0.05 µM): 25.85 ± 0.061%
9 | MKVSVAALSCLMLVTALGSQARVTKDAETEFMMSKLPLENPVLLDRFHATSADCCISYTPRSIPCSLLESYFETNSECSKPGVIFLTKKGRRFCANPSDKQVQVCMRMLKLDTRIKTRKN | 4.81 ± 0.43% | 5.12 ± 0.82% | 22.9 ± 1.3% | 24.7 ± 1.1% | 
10 | MKRVLVLLLAVAFGHALERGRDYEKNKVCKEFSHLGKEDFTSLSLVLYSRKFPSGTFEQVSQLVKEVVSLTEACCAEGADPDCYDTRTSALSAKSCESNSPFPVHPGTAECCTKEGLERKLCMAALKHQPQEFPTYVEPTNDEICEAFRKDPKEYANQFMWEYSTNYGQAPLSLLVSYTKSYLSMVGSCCTSASPTVCFLKERLQLKHLSLLTTLSNRVCSQYAAYGEKKSRLSNLIKLAQKVPTADLEDVLPLAEDITNILSKCCESASEDCMAKELPEHTVKLCDNLSTKNSKFEDCCQEKTAMDVFVCTYFMPAAQLPELPDVELPTNKDVCDPGNTKVMDKYTFELSRRTHLPEVFLSKVLEPTLKSLGECCDVEDSTTCFNAKGPLLKKELSSFIDKGQELCADYSENTFTEYKKKLAERLKAKLPDATPTELAKLVNKHSDFASNCCSINSPPLYCDSEIDAELKNIL |  |  |  |  | percentage of EdU-negative [1, 3]: 6.02 ± 1.8%; percentage of EdU-negative [1, 4]: 16.1 ± 0.49%; percentage of EdU-negative [2, 3]: 25.9 ± 0.66%; percentage of EdU-negative [2, 4]: 27.2 ± 1.1%
11 | MAARRSQRRRGRRGEPGTALLVPLALGLGLALACLGLLLAVVSLGSRASLSAQEPAQEELVAEEDQDPSELNPQTEESQDPAPFLNRLVRPRRSAPKGRKTRARRAIAAHYEVHPRPGQDGAQAGVDGTVSGWEEARINSSSPLRYNRQIGEFIVTRAGLYYLYCQVHFDEGKAVYLKLDLLVDGVLALRCLEEFSATAASSLGPQLRLCQVSGLLALRPGSSLRIRTLPWAHLKAAPFLTYFGLFQVH | 12.2 ± 2.6% | 13.4 ± 1.1% | 24.6 ± 1.4% | 24.3 ± 3.4% | 
12 | MALFAVFQTTFFLTLLSLRTYQSEVLAERLPLTPVSLKVSTNSTRQSLHLQWTVHNLPYHQELKMVFQIQISRIETSNVIWVGNYSTTVKWNQVLHWSWESELPLECATHFVRIKSLVDDAKFPEPNFWSNWSSWEEVSVQDSTGQDILFVFPKDKLVEEGTNVTICYVSRNIQNNVSCYLEGKQIHGEQLDPHVTAFNLNSVPFIRNKGTNIYCEASQGNVSEGMKGIVLFVSKVLEEPKDFSCETEDFKTLHCTWDPGTDTALGWSKQPSQSYTLFESFSGEKKLCTHKNWCNWQITQDSQETYNFTLIAENYLRKRSVNILFNLTHRVYLMNPFSVNFENVNATNAIMTWKVHSIRNNFTYLCQIELHGEGKMMQYNVSIKVNGEYFLSELEPATEYMARVRCADASHFWKWSEWSGQNFTTLEAAPSEAPDVWRIVSLEPGNHTVTLFWKPLSKLHANGKILFYNVVVENLDKPSSSELHSIPAPANSTKLILDRCSYQICVIANNSVGASPASVIVISADPENKEVEEERIAGTEGGFSLSWKPQPGDVIGYVVDWCDHTQDVLGDFQWKNVGPNTTSTVISTDAFRPGVRYDFRIYGLSTKRIACLLEKKTGYSQELAPSDNPHVLVDTLTSHSFTLSWKDYSTESQPGFIQGYHVYLKSKARQCHPRFEKAVLSDGSECCKYKIDNPEEKALIVDNLKPESFYEFFITPFTSAGEGPSATFTKVTTPDEHSSMLIHILLPMVFCVLLIMVMCYLKSQWIKETCYPDIPDPYKSSILSLIKFKENPHLIIMNVSDCIPDAIEVVSKPEGTKIQFLGTRKSLTETELTKPNYLYLLPTEKNHSGPGPCICFENLTYNQAASDSGSCGHVPVSPKAPSMLGLMTSPENVLKALEKNYMNSLGEIPAGETSLNYVSQLASPMFGDKDSLPTNPVEAPHCSEYKMQMAVSLRLALPPPTENSSLSSITLLDPGEHYC | 4.25 ± 0.45% | 5.8 ± 0.95% | 26.44 ± 0.24% | 24.9 ± 2% | 
